Test results taken from patent EP2835135A2, “Means and methods for treating pseudomonas infection” (Max-Planck-Gesellschaft zur Förderung der Wissenschaften …, priority 2013, dated 2015).
Bridge positions count the residues as written; N and C are the ends. Square brackets hold non-standard residues; d marks the D form. Ends that are not written are not given here. S5 = C=CCCC[C@](C)(N)C(=O)O

Key:
14-3-3 [1] = target: T1, 14-3-3 (Homo sapiens, UniProt P63104); experiment: FP competition experiment: labeled peptide preincubated with 14-3-3 and titrated with unlabeled WT peptide; type: binding; details: FITC-labeled peptide 20 nM, 14-3-3 4.0 µM, Figure 7
T1 sequence (P63104 1-245): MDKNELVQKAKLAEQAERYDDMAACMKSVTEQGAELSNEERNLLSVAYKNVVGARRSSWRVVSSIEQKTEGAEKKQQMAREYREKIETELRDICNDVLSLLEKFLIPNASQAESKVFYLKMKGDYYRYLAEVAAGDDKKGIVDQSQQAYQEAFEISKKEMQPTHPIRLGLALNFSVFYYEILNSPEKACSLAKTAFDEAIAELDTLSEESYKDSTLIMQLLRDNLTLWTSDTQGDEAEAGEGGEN
From the text: The figures show: • Figure 1: (A) Schemetic representaion of ExoS' role in P. aeruginosa infection. (B) Crystal structure of 14-3-3 binding domain of ExoS bound to 14-3-3 (PDB 2002). • Figure 2: (A) Concept for an antibiotic strategy against P. aeruginosa. (B) Overlaid structures of 14-3-3 in complex with 14-3-3 binding domains of ExoS (PDB 2002) and endogenous phosphorylated sequences (PDB 1QJA, 1YWT, 2B05, 2BR9, 2BTP, 2C1J, 2C1N, 2C63, 2C74, 2NPM, 2IQV, 3LW1). • Figure 3: Alignment of 14-3-3 residues involved in inhibitor binding. • Figure 4: Dual assay for the identification of inhibitors of 14-3-3/ExoS interaction that would not affect interactions of 14-3-3 with endogenous binding parterns. L^1 and L^2 as well as L^3 and L^4 are chosen in order to allow a fluorescence polarization readout, ALPHA screen ("Amplified Luminescent Proximity Homogeneous Assay") or HRTF screen ("homogeneous time resolved fluorescence"; both ALPHA and HRTF screens are very sensitive homogeneous assay technologies that allow the screening of interactions in a proximity sensitive fashion). • Figure 5: (A) Crystal structure of ^420[…]^430 (sticks) complexed to 14-3-3 ζ ΔC (spacefill). The 2FC - F0 density is scaled to 1σ (grid). (B) Superimposition of truncated ExoS peptide (^420[…]^430) with the previously reported ExoS peptide (^416[…]^430, PDB 2002). […]

14-3-3 [2] = target: T1, 14-3-3; experiment: Fluorescence polarization (FP) assay: fluorescein-labeled peptides titrated with unlabeled 14-3-3 protein; type: binding; details: three cross-link architectures (C8-linker), Figure 6B
From the text: A fluorescence polarization (FP) assay was used to determine the affinity of fluorescein-labeled truncated versions of this peptide to 14-3-3 (Table 1). […] The labeled peptides were titrated with unlabeled 14-3-3 protein.
The binding affinities were again determined using FP.
The binding affinity of the non-classic cross-linked peptides was investigated using FP (Figure 6C).

| Compound | displacement of the labeled peptide by unlabeled WT peptide (14-3-3 [1]) | affinity for 14-3-3 compared to the starting sequence (WT) (14-3-3 [2]) |
| --- | --- | --- |
| CC(C)C[C@H](NC(=O)CNC(=O)[C@@H](N)CCC(N)=O)C(=O)N[C@@H](CC(C)C)C(=O)N[C@@H](CC(=O)O)C(=O)N[C@@H](C)C(=O)N[C@@H](CC(C)C)C(=O)N[C@@H](CC(=O)O)C(=O)N[C@@H](CC(C)C)C(=O)N[C@@H](C)C(=O)N[C@@H](CO)C(=O)O | displacement by unlabeled WT peptide |  |
| α cross-linked peptide: ExoS 11-mer with α cross-link (i,i+4): residues Leu426 and Leu422 replaced with S5, C8-linker (QG[S5]LDA[S5]DLAS; staple 3-7) |  | significantly decreased binding affinity |
| γ cross-linked peptide: ExoS 11-mer with γ cross-link (i,i+3) at positions Leu426 and Leu423 (R5 and S5, respectively), C8-linker (QGLXDAXDLAS; non-natural residues) |  | significantly decreased binding affinity |
